± gives the uncertainty stated by the source.
Experiment: amyloid nucleation score (Sup35N fusion, yeast selection) (log enrichment); library NNK2; higher = more nucleation; inactive = no reads after selection
How it was run: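 In psi-negative yeast, Sup35N fusions carrying peptides of 20 random codons were induced with 100 μM copper sulfate for 24 hours. The cells then grew 7 days at 30°C on medium lacking adenine and uracil, and plasmid inserts from input and output were Illumina-sequenced, excluding sequences with under 100 input reads. Nucleation score is the DiMSum log enrichment of output over input reads, centred on the mode score of non-aggregating sequences.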

Substance | amyloid nucleation score
LLGISLLSLWTFGYLSEIVV | 0 ± 0.8
WGFIAVDGRPIVASLRYSMR | 3.51 ± 0.084
LQTQFTAVC | 0.27 ± 0.22
VTFLGDIRYFRCWCL | 9.561 ± 0.077
KSMKEFSKFVLMSAP | 0.192 ± 0.46
RLALY | 1.45 ± 0.25
FFLSNWAAF | 0.234 ± 0.55
CFKDYQIGSCKQSL | -0.499 ± 0.76
CDISRGLILYTHGLLFWTIR | inactive
KSQILACYNQLP | 0.83 ± 0.48
GLWVV | -1.02 ± 1.1
SINWAFDYVSVLVGFD | inactive
HWKAFYL | 1.13 ± 0.59
TKEFGECFIQMIMYNGRDIL | 1.88 ± 0.1
WSRSNLCTFSFLGNIISPDR | 4.02 ± 0.073
SMGLSC | inactive
FMEGTRHCGKYFSC | 0.938 ± 0.26
FPTFVAMW | 0.35 ± 0.23
CNVSCFVRVVFKWIIS | 2.33 ± 0.24
DVVNVSYGPVITFMSVFRVS | 7.556 ± 0.051
RDISIMHRRRMNGLFNY | inactive
MDLVCVAKSDVQACTYSAPV | 1.1 ± 0.39
LLRSEVGDLILPCVLERCRP | 1.13 ± 0.36
KRRSLGLLISLVTMGDK | 0.917 ± 0.31
SYFMTLIVPGRLLWIDLEGV | -0.823 ± 0.63

Substance | amyloid nucleation score
TWFAHQMWCFSILQFITLKS | 0.867 ± 0.32
TASWNWLGIVRAGF | 1.08 ± 0.27
KDRSQGKCLLGQQRQ | 0.782 ± 0.15
YFGVLFPVMNWQLSWKNIYW | inactive
KRSMKESWVYNLCNRVYCKG | 0.467 ± 0.8
GQYLVSKFGIEHTA | 0.307 ± 0.17
SLSVAWKWGGRSDN | 6.213 ± 0.06
EKRMNLVHYREYLPPFKRSN | -0.403 ± 1
WVVHLSSGIRNF | inactive
KCVLLWWVIKYVCVDTDAAV | -0.174 ± 0.74
VWLYKSLIINFDSKWRLS | 6.268 ± 0.034
NVDRRQGETWSNPYDLMRRL | 0.291 ± 0.19
NRHWRFG | 2.7 ± 0.11
KIVVSFWLLPCFGKLFFPSV | -0.618 ± 0.76
GLESFGDYSVKIPLGDLFGP | -0.025 ± 0.3
WKSLGNSAVVIRLAS | -0.453 ± 1.1
FLIFVFLLYGPEMSDYCWTF | 0.14 ± 1
DGFYG | inactive
RDMVTVVCTWEKWCCRFPDL | 0.063 ± 0.21
SSIGKGFSNSYGHAYCKHTW | -0.124 ± 0.76
GDGHLVILLSHFTPWSLNTG | -0.209 ± 0.48
PCLMEGFTS | -0.849 ± 0.64
NLKRMFYVGCSIVSRKLIGR | -0.095 ± 0.5
FFSGGIILHYSYPTWEWYRS | 2.92 ± 0.098
YVSGGVKAFSFLSVCYLSPW | 7.586 ± 0.066

Substance | amyloid nucleation score
FKFLADVVPWFSSRWSHLMM | -0.867 ± 0.37
KFAKSSNKDHHDFYAVELGT | -0.289 ± 0.63
WVLPSLKGCTAVSYIFVFLY | 0.398 ± 0.27
EVSQGLDSILYLWYDEWDSA | -0.608 ± 0.31
TVGRWH | -0.939 ± 0.76
TLAEFGQQPGRGACMYAVNN | inactive
YLKRPRPRRLGSP | 0.405 ± 0.33
YVLFLVRWRVNRV | 2.19 ± 0.11
AAILFSGDVLCLLRCYIAIK | -0.291 ± 0.74
PCCQEACDGCEGNRDLPGEA | 1.65 ± 0.32
YVLSSLRICYTMLSM | inactive
GYGSSYLMQARSNRRISVFL | -0.758 ± 0.79
GHCFISEFLGRRVA | 2.36 ± 0.08
CLRLFTQSGFE | -0.362 ± 0.38
SKFHIVIWSSAFFGCNCRLA | 6.78 ± 0.079
PYYYRLDFWHHNKKYNFGYY | -1.16 ± 1.1
CYCDSWIMAS | -1.69 ± 0.55
RERCC | inactive
DLRSWVFWNTSAYYIFSTDS | -1.32 ± 0.36
MMFNSLCSYWTTDYFATPDL | 6.778 ± 0.062
SSNHTPTVVMHDHIPVLNFR | -0.628 ± 0.63
GIRAVVL | 0.374 ± 0.18
IESSVCPGRRPGLLPTLKAG | 0.901 ± 0.31
SNHVKCGWICKFSLRIQSVY | 0.129 ± 0.65
ILSTVTDSSCNIACSCNNN | 8.363 ± 0.047

Substance | amyloid nucleation score
IRSRLFFALLCVYS | -0.861 ± 0.41
QCVGRASCANSVALYLCSVA | 0.06 ± 0.35
LYTMNLHYFLLFEESVS | -0.835 ± 0.28
LSIMHYIIYRLDFAFSWKGG | -1.05 ± 1.1
PGVRISVPVLLAWNCYC | 8.558 ± 0.071
AQFVKWAVNLLGSRYSWYEQ | inactive
VFLACNDCLCVWLSVEVTSE | inactive
LRDCFVEYEGSSSMYYLRQW | -0.105 ± 0.4
LRWRSCGNELDFKLNGLDFE | 0.586 ± 0.74
SNVLFLVLHRGRVKAVSRNE | -0.783 ± 1
SVYANILFNKACMRFNVVNG | 0.23 ± 0.21
TFGLWPPQGMAIRGMRVNMN | inactive
DYLIAIQLYDFYVHGLIKYR | -0.853 ± 0.78
SYYYEGGPCWIEDLHGNVYV | 0.183 ± 0.64
AGPWGVSTFYAVHLLASLYP | -0.446 ± 0.79
VPSGSLD | inactive
SSYTMEPPHVRA | 0.155 ± 1.1
LNQSDLLADFLVLI | 0.474 ± 0.31
RINNS | -1.44 ± 0.45
YAVVFHVPLLV | 5.11 ± 0.079
LVLNKNCLKVI | -0.426 ± 0.6
SACVWVNICTSASNGDPG | 7.445 ± 0.039
ETLPLNIILYACGEPHWFLL | -0.407 ± 0.29
ISQRNRSIAYYKMSLTRYGF | inactive
RFCAMTYERLCVFVIF | 0.197 ± 0.4

Substance | amyloid nucleation score
AVEAYNMSNYLLRYISGSV | -0.109 ± 0.65
PHLTMFKARYIDTFAPRS | -0.672 ± 0.5
TYVDTVFSGSGCYLLYKGWI | 0.851 ± 0.57
NVLSWKHMRAKGVNWFGGWV | -0.066 ± 0.27
VEWEVMGVPDSKLDRGTGTV | 1.09 ± 0.53
RYNPCD | 0.334 ± 0.44
RIGMPMMSAYTMGLVTDRFT | 1.06 ± 0.4
LSRKTYWA | 0.894 ± 0.43
RGAAGILFTSLIFMSVYALI | -0.104 ± 0.49
KILALATRLKIFSSLVYIRS | 0.338 ± 0.51
ETHYPPQ | 0.033 ± 0.32
RWITSAY | 0.709 ± 0.62
SGMISRRHAYGAEVELVGSN | 1.17 ± 0.43
DVLWTLQLLFDPVGLCLAMK | 0.391 ± 0.41
NQNNDHSTWSIFKLCEVGCL | 8.986 ± 0.045
HLWVWFRYSSRSFSHMLGDC | 2.92 ± 0.15
KRGKMHYCKFAHAAITVTQL | -0.515 ± 0.43
LFFFSGRWKVNGGIVDGCGV | 0.166 ± 0.45
NSIRSKDSDLRRYNPLPSTA | 4.46 ± 0.083
LCAGGVGRRWLVLDTAECDG | 0.59 ± 0.64
TTCDNEREGTLKYVNVCCNL | 5.42 ± 0.045
LYHPACSAFSRSFCVKFLYW | -0.837 ± 0.61
FSSSNSIFKFVLNVRCTGVK | 5.045 ± 0.049
ILGSARYIVCGQVSEMRSAG | 0.367 ± 0.49
RPWLVY | 0.026 ± 1.1

Substance | amyloid nucleation score
YQMVTCWAYDSQDIGSWCAG | -0.012 ± 1.1
VINGVHLSRVLYNPILEFIT | inactive
DLRRGSRRWRKYGTGECGLL | 0.43 ± 0.32
EYVVSLHVFRLHIKLKIFRV | -0.09 ± 0.65
CVICHYHLCLRQCIWSG | 5.373 ± 0.033
AGEQEVDGPVIQRWSGFTTR | 2.2 ± 0.21
GGTVEARSKGILSLSGW | inactive
LMSFGDLCIHLGFGSCFCLM | -0.631 ± 0.39
YGDMAVFVG | 1.07 ± 0.41
GFPVWNVYLKSNGHVCDGLG | 1.31 ± 0.15
NCPPFHRMYLTSIIGSLSDD | -0.306 ± 0.49
RAPVSWRLK | 0.267 ± 0.42
TRVGGWKTSG | 0.945 ± 0.32
VNDLLTPCGIHLQPVWDYES | -0.013 ± 0.49
SESHICGV | -1.62 ± 0.62
VNIILASMHVLLDGCS | -1.08 ± 0.64
ESFLDINGVLRLRRLYVQSQ | 0.587 ± 0.56
PVKRQGSSAANVPVVW | 0.444 ± 0.44
PMVFNHG | -0.398 ± 1
TGFCGRHYDLSSSTEDLYLL | 0.606 ± 0.8
YFVSSC | -1.23 ± 0.35
VEFYCSTERCLYDFTNG | -2.3 ± 0.75
DTGSGAPVIKYCVAVPRSFT | 0.306 ± 0.57
GFVPGIMEF | 0.808 ± 0.52
PTDHSTEVSLRFCCRGVSEL | -0.403 ± 0.46

Substance | amyloid nucleation score
YMCKVSPLRILSF | 2.66 ± 0.056
WIYSFTMFATWTNVT | 0.092 ± 0.79
MFVHLGGTWMQR | 5.135 ± 0.046
QCSHI | -0.193 ± 0.28
LCGNRGFYDH | -0.177 ± 0.54
FLLSV | inactive
KAHIAVDGIMA | 0.117 ± 0.33
YVMNQPDKVWSHIESGNKRH | -1.34 ± 0.62
LWDMIRNGC | -0.769 ± 0.45
CCSIVSTYRKYLVNRTRWIF | -0.982 ± 0.42
LPTWYVLVPLMDYIYYLFKE | -0.536 ± 1
LIQRVRGCWTSYVYGGVWSR | 1.66 ± 0.34
INVAQALLSAPA | 3.81 ± 0.062
YPMNSVPDI | -0.858 ± 0.48
LTFYCME | -0.465 ± 0.45
FPGPRRLSWFPGVQRVSMMI | -0.243 ± 0.79
GVSSKKV | 4.768 ± 0.047
YYSVMWYLMERAIN | -0.975 ± 0.35
SFMGEK | -0.453 ± 0.74
YRSAYFMFTVDHFGLELFFL | 2.45 ± 0.12
LYISQSCGRHD | -0.554 ± 0.22
HGDNFSEVATTFNCMMLLNV | -0.243 ± 1.1
LRFCSSSVISGLQFSSRVVE | -0.029 ± 1.1
PVLFYSLYIVNVNTLYMSSG | 7.857 ± 0.051
